Target: T1, BRD2 (Bromodomain-containing protein 2) (UniProt P25440 1-801, limits assumed)
T1 construct: also called Brd2 protein
Experiment: co-immunoprecipitation and immunoblotting, time course
Protocol: Particularly, the antibody targeting RUNX3 (5G4) (Cat #ab40278) was obtained from Abcam (Cambridge, UK), and the antibody was diluted 1:3000. BRD2 (M01; 1:1000; Cat #H00006046-M01, Abnova, Taipei City, Taiwan) was used for immunoblotting and immunoprecipitation. Transient transfection was performed in all cell lines using lipofectamine plus reagent and lipofectamine (Invitrogen). Cell lysates were incubated with an appropriate monoclonal or polyclonal antibody (2 μg of antibody/500 μg of lysate sample) at 4° C. for 3 hours, followed by incubation with protein G-Sepharose beads (Amersham Pharmacia Biotech, Piscataway, N.J., USA). For the detection of endogenous proteins at 4° C. for 1 hour, the lysate was incubated with an appropriate monoclonal or polyclonal antibody (1:1000˜1:3000) at 4° C. for 6 to 12 hours, and then protein G-Sepharose beads (Amersham Pharmacia Biotech) were […] at 4° C. for 3 hours. The immune precipitate was digested on SDS-polyacrylamide gel electrophoresis (SDS-PAGE) gel and transferred to a PVDF membrane (Millipore, Billerica, Mass., USA). The membrane was blocked, immunoblotted with an appropriate antibody, treated with ECL solution (Amersham Pharmacia Biotech), and visualized in Amersham™ Imager 600 (GE Healthcare, Chicago, Ill., USA).

T1 sequence (P25440 whole entry): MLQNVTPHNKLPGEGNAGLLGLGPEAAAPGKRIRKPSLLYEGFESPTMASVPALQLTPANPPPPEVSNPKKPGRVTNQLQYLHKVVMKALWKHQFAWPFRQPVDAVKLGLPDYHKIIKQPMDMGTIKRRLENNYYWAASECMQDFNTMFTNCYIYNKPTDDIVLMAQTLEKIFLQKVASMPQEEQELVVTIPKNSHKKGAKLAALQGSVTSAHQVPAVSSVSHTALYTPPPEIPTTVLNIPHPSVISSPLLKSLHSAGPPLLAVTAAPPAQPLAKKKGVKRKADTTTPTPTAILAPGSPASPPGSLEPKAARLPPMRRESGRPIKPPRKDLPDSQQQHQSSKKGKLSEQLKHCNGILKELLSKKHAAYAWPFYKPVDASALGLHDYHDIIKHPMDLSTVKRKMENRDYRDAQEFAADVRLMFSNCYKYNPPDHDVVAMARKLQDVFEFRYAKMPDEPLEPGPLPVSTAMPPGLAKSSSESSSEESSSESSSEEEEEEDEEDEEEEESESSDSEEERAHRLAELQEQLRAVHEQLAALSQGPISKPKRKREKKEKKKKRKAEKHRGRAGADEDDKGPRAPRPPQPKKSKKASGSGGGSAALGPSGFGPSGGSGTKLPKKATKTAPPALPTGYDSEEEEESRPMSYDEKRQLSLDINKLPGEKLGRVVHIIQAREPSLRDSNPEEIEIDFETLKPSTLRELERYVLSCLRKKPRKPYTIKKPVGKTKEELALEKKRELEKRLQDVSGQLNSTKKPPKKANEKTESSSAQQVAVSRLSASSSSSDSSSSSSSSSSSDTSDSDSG

B1: modified protein in which the 356th serine of Runx3 is substituted with alanine (other, UniProt Q13761 1-415, looked up)
chain: MRIPVDPSTSRRFTPPSPAFPCGGGGGKMGENSGALSAQAAVGPGGRARPEVRSMVDVLADHAGELVRTDSPNFLCSVLPSHWRCNKTLPVAFKVVALGDVPDGTVVTVMAGNDENYSAELRNASAVMKNQVARFNDLRFVGRSGRGKSFTLTITVFTNPTQVATYHRAIKVTVDGPREPRRHRQKLEDQTKPFPDRFGDLERLRMRVTPSTPSPRGSLSTTSHFSSQPQTPIQGTSELNPFSDPRQFDRSFPTLPTLTESRFPDPRMHYPGAMSAAFPYSATPSGTSISSLSVAGMPATSRFHHTYLPPPYPGAPQNQSGPFQANPSPYHLYYGTSSGSYQFSMVAGSSSGGDRAPTRMLASCTSSAASVAAGNLMNPSLGGQSDGVEADGSHSNSPTALSTPGRMDEAVWRPY
notes: also called Runx3 S356A; RUNX3 S356A
complex maintenance activity, fold against wild-type Runx3: ≥ 10 times
